Legend:
Assay in all cases: purified protein
Settings in all cases: 0.12 mM NADPH, 50 mM potassium phosphate pH 7.4, 10 mM 2-mercaptoethanol, 37°C
[1] = system: CC(=O)C=O
[2] = system: CCCCOCN(C(=O)CCl)c1c(CC)cccc1CC
[3] = system: CCOC(=O)C(C)=O
[4] = system: O=C1Nc2ccccc2C1=O
[5] = system: O=Cc1ccccc1[N+](=O)[O-]
[6] = system: O=Cc1ccccc1

## AKR17A1 (All2316) (Nostoc sp. PCC 7120 = FACHB-418)
[1]
  Km: 4.164 (0.973) mM
  kcat: 1.6 s⁻¹
  kcat/Km: 383 M⁻¹ s⁻¹
[2]
  Km: 0.548 (0.190) mM
  kcat: 2.11 s⁻¹
  kcat/Km: 3840 M⁻¹ s⁻¹
[3]
  Km: 6.213 (2.214) mM
  kcat: 1.43 s⁻¹
  kcat/Km: 228 M⁻¹ s⁻¹
[4]
  Km: 0.011 (0.005) mM
  kcat: 1.58 s⁻¹
  kcat/Km: 136000 M⁻¹ s⁻¹
[5]
  Km: 0.014 (0.002) mM
  kcat: 1.59 s⁻¹
  kcat/Km: 114000 M⁻¹ s⁻¹
[6]
  Km: 3.740 (1.098) mM
  kcat: 1.51 s⁻¹
  kcat/Km: 404 M⁻¹ s⁻¹

From publication PMC4570671, “A Novel Aldo-Keto Reductase (AKR17A1) of Anabaena sp. PCC 7120 Degrades the Rice Field Herbicide Butachlor and Confers Tolerance to Abiotic Stresses in E. coli” (PLoS ONE, 2015)
